Experimental data taken from paper PMC7215387, “Comparison of Target Recognition by TRAF1 and TRAF2” (International Journal of Molecular Sciences, 2020).

Legend:
Type in all cases: binding
TRAF1 [1] = target: T1, TRAF1 (Homo sapiens, UniProt Q13077); assay: Native-PAGE complex formation with TRAF1; settings: 8% to 25% acrylamide gradient gels, Coomassie; 1 h at 4 °C; TRAF1 TRAF domain (220-416)
T1 construct: the TRAF1 TRAF domain (amino acid residues 220-416); 6xHis (C); made in house; host or cells: E. coli BL21 (DE3)
T1 sequence (Q13077 220-416): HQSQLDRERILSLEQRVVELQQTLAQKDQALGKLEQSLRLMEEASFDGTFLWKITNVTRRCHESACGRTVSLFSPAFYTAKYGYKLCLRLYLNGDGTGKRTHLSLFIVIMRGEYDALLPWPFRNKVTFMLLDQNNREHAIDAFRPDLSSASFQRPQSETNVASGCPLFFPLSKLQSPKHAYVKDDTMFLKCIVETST
Source text: (§1) TRADD is a well-known regulator of the TRAF function. The death domain located at the C-terminus of TRADD interacts with death-domain containing receptors and adaptor proteins including TNFR, receptor interacting protein 1 (RIP1) and Fas-associated death domain protein (FADD), while the N-terminal domain of TRADD (TRADD-N) interacts with the TRAF domain of TRAF2 (Figure 2a). Although several indirect interactions between TRAF1 and TRADD have been described, a direct interaction and direct analyses between TRAF1 and TRADD have not been reported. To directly study their interactions and binding properties, which may provide important clues for understanding TRAF-mediated signaling by TRADD, TRAFs and TRADD-N were purified, and initial interaction testing was performed by Native-PAGE. […] Although TRAF1 did interact with TRADD-N, this interaction was not as tight as with TRAF2 (Figure 2b). To further confirm this association, the interaction between the TRAFs and TRADD-N was further tested by size-exclusion chromatography. […]
(§2) The formation of complexes was assayed by native (non-denaturing) PAGE conducted on a PhastSystem (GE Healthcare) with pre-cast 8% to 25% acrylamide gradient gels (GE Healthcare). […] Complex formation was evaluated based on the appearance of newly formed bands or the disappearance of bands that were detected in single control protein bands.

TRAF1 [2] = target: T1, TRAF1; assay: Complex formation assay by gel-filtration (size-exclusion) chromatography with TRAF1; settings: Superdex 200 10/30, 20 mM Tris pH 8.0, 150 mM NaCl; 1 h at 4 °C; peak shift approximately 16 mL
Source text: as §1
Purified TRAF domains and TRADD-N proteins were mixed, incubated at 4 °C for 1 h, and concentrated to 4 to 5 mg/mL using a protein concentration kit (Millipore). […] Complex assembly was evaluated based on the positions of eluted protein peaks monitored at 280 nm followed by SDS-PAGE.

TRAF2 = target: T2, TRAF2 (Homo sapiens, UniProt Q12933); assay: Native-PAGE complex formation with TRAF2; settings: 8% to 25% acrylamide gradient gels, Coomassie; 1 h at 4 °C; TRAF2 TRAF domain (305-501)
T2 construct: TRAF2 TRAF domain (amino acid residues 305-501); 6xHis (C); made in house; host or cells: E. coli BL21 (DE3)
T2 sequence (Q12933 305-501): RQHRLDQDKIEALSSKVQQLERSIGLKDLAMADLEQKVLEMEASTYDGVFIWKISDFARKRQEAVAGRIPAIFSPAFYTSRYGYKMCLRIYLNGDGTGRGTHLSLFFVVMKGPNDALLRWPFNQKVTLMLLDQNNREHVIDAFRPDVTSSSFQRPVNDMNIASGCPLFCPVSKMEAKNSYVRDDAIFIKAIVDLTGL
Source text: as §1, §2

B1: TRADD-N: N-terminal domain of TRADD (TRADD-N, amino acid residues 1-163) (protein)
chain: MAAGQNGHEEWVGSAYLFVESSLDKVVLSDAYAHPQQKVAVYRALQAALAESGGSPDVLQMLKIHRSDPQLIVQLRFCGRQPCGRFLRAYREGALRAALQRSLAAALAQHSVPLQLELRAGAERLDALLADEERCLSCILAQQPDRLRDEELAELEDALRNLK
modifications: left off: His6 (from the vector pET24a), C-terminal, state not stated
Native-PAGE band change on incubation with TRAF1 (TRAF1 [1]): only a small portion of the TRADD-N band disappeared | co-migration with TRAF1 in size-exclusion chromatography / SDS-PAGE (TRAF1 [2]): TRADD-N did not perfectly co-migrate with TRAF1 | Native-PAGE band change on incubation with TRAF2 (TRAF2): the TRADD-N band was completely absent, forming a new complex band
